# Positions count from the first letter of the chain named. In names and notes the source's numbering stands.
# B1: MBP-DFCP1 112-415 (isolated GTPase domain), wild type (domain or fragment, human, UniProt Q9HBF4 112-415, looked up)
# chain: NKRRHPVTVYNVSNLQESLEAEEMDEETKRKKMTEKVVSFLLVDENEEIQVTNEEDFIRKLDCKPDQHLKVVSIFGNTGDGKSHTLNHTFFYGREVFKTSPTQESCTVGVWAAYDPVHKVAVIDTEGLLGATVNLSQRTRLLLKVLAISDLVIYRTHADRLHNDLFKFLGDASEAYLKHFTKELKATTARCGLDVPLSTLGPAVIIFHETVHTQLLGSDHPSEVPEKLIQDRFRKLGRFPEAFSSIHYKGTRTYNPPTDFSGLRRALEQLLENNTTRSPRHPGVIFKALKALSDRFSGEIPDDQ
# B2: MBP-DFCP1 112-415 R266Q (GTPase domain with the cancer-related mutation R266Q) (domain or fragment, human, UniProt Q9HBF4 112-415, looked up)
# chain: B1 chain with R155Q
# B3: full-length FLAG-DFCP1 (Double FYVE Domain Containing Protein 1) (natural protein, human, UniProt Q9HBF4 1-777, looked up)
# chain: MSAQTSPAEKGLNPGLMCQESYACSGTDEAIFECDECCSLQCLRCEEELHRQERLRNHERIRLKPGHVPYCDLCKGLSGHLPGVRQRAIVRCQTCKINLCLECQKRTHSGGNKRRHPVTVYNVSNLQESLEAEEMDEETKRKKMTEKVVSFLLVDENEEIQVTNEEDFIRKLDCKPDQHLKVVSIFGNTGDGKSHTLNHTFFYGREVFKTSPTQESCTVGVWAAYDPVHKVAVIDTEGLLGATVNLSQRTRLLLKVLAISDLVIYRTHADRLHNDLFKFLGDASEAYLKHFTKELKATTARCGLDVPLSTLGPAVIIFHETVHTQLLGSDHPSEVPEKLIQDRFRKLGRFPEAFSSIHYKGTRTYNPPTDFSGLRRALEQLLENNTTRSPRHPGVIFKALKALSDRFSGEIPDDQMAHSSFFPDEYFTCSSLCLSCGVGCKKSMNHGKEGVPHEAKSRCRYSHQYDNRVYTCKACYERGEEVSVVPKTSASTDSPWMGLAKYAWSGYVIECPNCGVVYRSRQYWFGNQDPVDTVVRTEIVHVWPGTDGFLKDNNNAAQRLLDGMNFMAQSVSELSLGPTKAVTSWLTDQIAPAYWRPNSQILSCNKCATSFKDNDTKHHCRACGEGFCDSCSSKTRPVPERGWGPAPVRVCDNCYEARNVQLAVTEAQVDDEGGTLIARKVGEAVQNTLGAVVTAIDIPLGLVKDAARPAYWVPDHEILHCHNCRKEFSIKLSKHHCRACGQGFCDECSHDRRAVPSRGWDHPVRVCFNCNKKPGDL
# Molecular target: the molecule itself
# Assay: SEC
row,Protein,stoichiometry N
1,B1,2
2,B2,2
3,B3,2

# Source: doi:10.1101/2022.02.09.479746 (bioRxiv, 2022)
